In patent US7745159 one finds LFE(sample)/LFE(control) data, which are given here for 1 substance.

Test [1] deals with antigen defined by MAb OV569 on human carcinoma cell surfaces (human). The experiment in a line: flow cytometry, OV569 supernatant on lung carcinoma line H2981, against an irrelevant MAb. On the technique in general: A flow cytometer gives signals particle by particle.
For test [2] the target is unchanged. The experiment in a line: flow cytometry, OV569 supernatant on lung carcinoma line H2987, against an irrelevant MAb.
Test [3] shares this target. The experiment in a line: flow cytometry, OV569 supernatant on lung carcinoma line H4013, against an irrelevant MAb.
Test [4] shares this target. The experiment in a line: flow cytometry, OV569 supernatant on ovarian carcinoma line H4006, against an irrelevant MAb.
For test [5] the target is unchanged. The experiment in a line: flow cytometry, OV569 supernatant on ovarian carcinoma line H4004, against an irrelevant MAb.
For test [6] the target is unchanged. The experiment in a line: flow cytometry, OV569 supernatant on ovarian carcinoma line H3759, against an irrelevant MAb.
For test [7] the target is unchanged. The experiment in a line: flow cytometry, OV569 supernatant on ovarian carcinoma line H3907, against an irrelevant MAb.
Test [8] shares this target. The experiment in a line: flow cytometry, OV569 supernatant on ovarian carcinoma line H4012, against an irrelevant MAb.
Test [9] has the same target. The experiment in a line: flow cytometry, OV569 supernatant on ovarian carcinoma line H4007, against an irrelevant MAb.
For test [10] the target is unchanged. The experiment in a line: flow cytometry, OV569 supernatant on ovarian carcinoma line H3909, against an irrelevant MAb.
Test [11] has the same target. The experiment in a line: flow cytometry, OV569 supernatant on ovarian carcinoma line H4002, against an irrelevant MAb.
The target is the same in test [12]. The experiment in a line: flow cytometry, OV569 supernatant on ovarian carcinoma line H3659.5, against an irrelevant MAb.
For test [13] the target is unchanged. The experiment in a line: flow cytometry, OV569 supernatant on lung carcinoma line H3776, against an irrelevant MAb.
For test [14] the target is unchanged. The experiment in a line: flow cytometry, OV569 supernatant on ovarian carcinoma line H4010-1, against an irrelevant MAb.
For test [15] the target is unchanged. The experiment in a line: flow cytometry, OV569 supernatant on ovarian carcinoma line H3633, against an irrelevant MAb.
Test [16] has the same target. The experiment in a line: flow cytometry, OV569 supernatant on ovarian carcinoma line H3750, against an irrelevant MAb.
For test [17] the target is unchanged. The experiment in a line: flow cytometry, OV569 supernatant on lung carcinoma line H3754, against an irrelevant MAb.
Test [18] shares this target. The experiment in a line: flow cytometry, OV569 supernatant on lung carcinoma line H3963, against an irrelevant MAb.
The target is the same in test [19]. The experiment in a line: flow cytometry, OV569 supernatant on ovarian carcinoma line H4014, against an irrelevant MAb.
The target is the same in test [20]. The experiment in a line: flow cytometry, OV569 supernatant on ovarian carcinoma line H3538, against an irrelevant MAb.

In the case of monoclonal antibody OV569, the LFE(sample)/LFE(control) in test [1] stood at 1.3; in [2], 1.25; in test [3], 7; in test [4], 2.53; in test [5], 2.43; in test [6], 6.74. The LFE(sample)/LFE(control) in test [7] was 3.85; in [8], 1; in [9], 8.72; in test [10], 3.84; in [11], 8.48; in test [12], 5.63. The LFE(sample)/LFE(control) in test [13] came out at 1.33; in test [14], 1.12; in test [15] it was 1; in [16] it was 2.57; in test [17] it was 1.59; in test [18], 1.11. Also, the values for the LFE(sample)/LFE(control) in test [19] and in [20] were 1 and 2.55, respectively.
